± gives the standard deviation.
Test: protein stability index of a GFP-peptide fusion (GPS, HEK-293T) (PSI 1-6); higher = more stable
[1] = treatment: DMSO, c terminus: a fixed tail appended
[2] = treatment: MLN4924 1 uM, 8 h, c terminus: a fixed tail appended
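Further: 24-mer peptide tiles fused after GFP, lentivirally expressed, FACS-sorted into six equal bins by GFP/DsRed ratio, decoded by Illumina sequencing, PSI is the read-weighted mean bin number.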

Row | Sequence | protein stability index [1] | protein stability index [2] | protein stability index (treatment: DMSO, c terminus: native) | protein stability index (treatment: MLN4924 1 uM, 8 h, c terminus: native)
1 | HVLIHNTLQQLQAALRLAPAPALP [SERTAD3] | 2.51 ± 0.47 | 2.55 ± 0.2 |  | 
2 | FSLKQEETLDYGKNYNYGMHYCAV [NEUROD6] | 2.4 ± 0.18 | 2.07 ± 0.34 |  | 
3 | QSSQRMRQNLKLLVEETSCQQNMI [CEP70] | 3.65 ± 0.16 | 3.66 ± 0.16 |  | 
4 | ESKVKDILSKVQKNHVGKPLLKMD [FAM98B] | 3.49 ± 0.17 | 3.79 ± 0.19 |  | 
5 | TNNKVYAAKIIPHSRVAKPHQREK [PLK2] | 3.71 ± 0.2 | 4.08 ± 0.57 |  | 
6 | DDPSLLKEAKTKYPNYEFISDNSI [FUT8] | 3.58 ± 0.36 | 4.04 ± 0.53 |  | 
7 | SLYENDCIFDKFECVWNGSDSVIM [PPP2R2B] | 2.06 ± 0.71 | 2.07 ± 0.37 |  | 
8 | RAWIPSENIQDITVNIHRLHVKRS [ZMYND11] | 2.55 ± 0.31 | 2.49 ± 0.16 |  | 
9 | KTPPSSCDSTNAAIAKQALKKPIK [KMT5A] | 5.11 ± 0.12 | 5.15 ± 0.3 |  | 
10 | RYHFATGVWHQMGTDGYMPRELAS [KLHDC10] | 2.6 ± 0.2 | 2.41 ± 0.24 |  | 
11 | EVEGTKPSATEMIWAVLAAFNKS [GOLPH3L] |  |  | 2.4 ± 0.18 | 2.4 ± 0.33
12 | GVKFVGLFIILQVGLNTIADLWYL [POMT2] | 3.52 ± 0.1 | 2.9 ± 1.2 |  | 
13 | LDSQTEIYQYVQNSMAPHPARDYV [DLC1] | 2.99 ± 0.42 | 3.09 ± 0.25 |  | 
14 | AFAFQNTFPHSISAKNTSHPGSGT [SASS6] | 3.36 ± 0.39 | 3.45 ± 0.45 |  | 
15 | TQHHFAFQNAERAFKAAALIQRWY [PPEF2] | 3.09 ± 0.14 | 3.08 ± 0.18 |  | 
16 | GSGLSSRFEEPKGPPARQEDSKEL [CBY2] | 5.35 ± 0.27 | 5.5 ± 0.25 |  | 
17 | NSSEELSSALHLSKGMSIFLDILR [NECAB1] | 2.38 ± 0.13 | 2.54 ± 0.21 |  | 
18 | PIGILTTSYCELLQNKVPLLGSST [PPTC7] | 2.63 ± 0.53 | 2.66 ± 0.47 |  | 
19 | GPQLEGEKDWGLEGYVWRGSQLED [ZSWIM9] | 4.52 ± 0.23 | 4.45 ± 0.28 |  | 
20 | DGIDPFPLLMNRQRVPKVLVENAK [EFHC1] | 3.77 ± 0.24 | 3.97 ± 0.22 |  | 
21 | IERSKIVSTMRCKTRQKSEKQMEE [PPEF2] | 4.5 ± 0.21 | 4.5 ± 0.1 |  | 
22 | LPIKIAAIIASLTFLYTLLREVIH [STEAP1] | 2.53 ± 0.41 | 1.82 ± 0.64 |  | 

Row | Sequence | protein stability index [1] | protein stability index [2] | protein stability index (treatment: DMSO, c terminus: native) | protein stability index (treatment: MLN4924 1 uM, 8 h, c terminus: native)
23 | NHLDPFGHIILNSMHKYQPRLHIV [TBX5] | 2.31 ± 0.23 | 2.08 ± 0.52 |  | 
24 | AFNQNSSLGRHKRTHTGEKPYTCS [ZNF8] | 3.42 ± 0.33 | 3.79 ± 0.49 |  | 
25 | ICTQKCALNWTDIPVAMEHQPPYI [VPS39] | 2.25 ± 0.48 | 2.12 ± 0.11 |  | 
26 | SYFDMLYPEDSSWAAKAPGASSRE [SPDEF] | 3.56 ± 0.13 | 3.52 ± 0.22 |  | 
27 | FLEQRPQSPTLEFLLRNSQRTVGQ [EDARADD] | 3.15 ± 0.32 | 3.43 ± 0.34 |  | 
28 | RLNYDRKELEKRREESQHEIKDVL [PPFIA4] | 3.65 ± 0.42 | 4.76 ± 0.3 |  | 
29 | KTKVPSNDNSSDLLYDDLYDDDID [UBE2R2] | 5.28 ± 0.43 | 5.38 ± 0.36 |  | 
30 | VSKTLPSTWSDPSVNISLDNLLPG [CLINT1] | 3.35 ± 0.17 | 3.56 ± 0.16 |  | 
31 | RKLLESEECRMSGEFPSPVSISII [KRT71] | 2.42 ± 0.42 | 2.19 ± 0.19 |  | 
32 | GEKEVEALKKSADWVSDWSSRPEN [BNIP3L] | 4.78 ± 0.27 | 4.88 ± 0.39 |  | 
33 | QREEVEERMWAAIQSWDINSRRNI [ZER1] | 3.75 ± 0.36 | 3.69 ± 0.29 |  | 
34 | LQQIQGLIGGLEAQLSELRCEMEA [KRT15] | 3.52 ± 0.43 | 3.67 ± 0.41 |  | 
35 | GPHTISNQNNYRLLSCGKILTGCK [ACSBG2] | 3.21 ± 0.13 | 2.84 ± 0.62 |  | 
36 | IDYKTTTILLDGRRVKLQLWDTSG [RAB40B] | 2.42 ± 0.12 | 2.56 ± 0.24 |  | 
37 | LHSAIYAARPDVKCVVHIHTPAGA [ADD1] | 2.24 ± 0.22 | 2.11 ± 0.28 |  | 
38 | AVQGLNLRSPNNFLSYYRLTRFLS [CCND1] | 2.3 ± 0.18 | 2.36 ± 0.27 |  | 
39 | LVAHQRYHTGKTPFVCPECGQPCS [ZNF649] | 3.62 ± 0.45 | 4.03 ± 0.51 |  | 
40 | TRRKKGKKDKDISKEKDTQNQNIT [KMT2E] | 4.75 ± 0.12 | 5.07 ± 0.1 |  | 
41 | IIHEAGYSEEECKQYKAVVYSNTI [GNAI1] | 2.81 ± 0.04 | 2.77 ± 0.45 |  | 
42 | RAQYDELARKNREELDKYWSQQIE [KRT18] | 3.43 ± 0.27 | 3.97 ± 0.85 |  | 
43 | FDDEEPRKFYVHIKPAPARAPACS [FCHO1] | 3.27 ± 0.14 | 3.29 ± 0.38 |  | 
44 | ITVGLVFLCLQYRLRGKLRAEIEN [MOG] | 3.18 ± 0.42 | 3.29 ± 0.33 |  | 

Row | Sequence | protein stability index [1] | protein stability index [2] | protein stability index (treatment: DMSO, c terminus: native) | protein stability index (treatment: MLN4924 1 uM, 8 h, c terminus: native)
45 | RLVDAVLGAEIRNGMAIIRPPGHH [HDAC6] | 1.96 ± 0.17 | 2.02 ± 0.35 |  | 
46 | SQWKDPALSQLICFCRESRYMDQW [GADD45A] | 2.19 ± 0.19 | 2.31 ± 0.23 |  | 
47 | TQRRTSMGGTQQQFVEGVRMEEIV [CTNNB1] | 4.05 ± 0.47 | 4.26 ± 0.37 |  | 
48 | GEASYSTIAPTLIADLFVADQRSR [SPNS1] | 3.21 ± 0.39 | 3.29 ± 0.6 |  | 
49 | LSELYEESSDLQMDVMPGEGDLPQ [EID1] | 5.42 ± 0.47 | 5.12 ± 0.47 |  | 
50 | MERRRLRGSIQSRYISMSVWTSPR [PRAME] | 2.64 ± 0.28 | 2.73 ± 0.38 |  | 
51 | RQSLEGLSVRSVFFGVFQSFVVLL [CLPTM1] | 2.04 ± 0.14 | 1.99 ± 0.25 |  | 
52 | LTAHLLPPRQALGSLCSPWAAPRV [YPEL3] | 2.56 ± 0.36 | 2.45 ± 0.36 |  | 
53 | GAVFNGITLLILAELLIFSVPIVY [RTN3] | 3.33 ± 0.037 | 2.9 ± 0.39 |  | 
54 | QAPPADFIPAHVAFDKKVLKFDAY [EFHC1] | 3.01 ± 0.38 | 2.98 ± 0.28 |  | 
55 | HVPEGFDPTGPAGLGRPTPGLSQG [EHMT1] | 4.4 ± 0.27 | 4.51 ± 0.11 |  | 
56 | KQVCKIAALHGLEETKKLANKYLV [KLHL14] | 2.03 ± 0.31 | 2.35 ± 0.32 |  | 
57 | RLRGLLRVLRGRPGAGSRRRGRMA [FBXO33] | 2.6 ± 0.61 | 3.14 ± 0.69 |  | 
58 | RSHLIGHQRTHSEEETYKCLECGK [ZNF449] | 4.26 ± 0.16 | 4.39 ± 0.26 |  | 
59 | IHFTLIQAFCCENDINILRVSNPG [GADD45A] | 3 ± 0.46 | 2.71 ± 0.45 |  | 
60 | HKHVVQFYHYFEDKENIYILLEYC [PLK2] | 2.63 ± 0.43 | 2.37 ± 0.71 |  | 
61 | PETLPESSLFSVEANSSNSQKNEK [C8orf76] | 5.54 ± 0.14 | 5.41 ± 0.4 |  | 
62 | LTEQYTVTGLMEATQMMVDIDGDV [RHOBTB2] | 4.66 ± 0.33 | 4.63 ± 0.29 |  | 
63 | YIAAFLHVLLPVALEFQPQLVLVA [HDAC6] | 3.25 ± 0.84 | 3.14 ± 0.41 |  | 
64 | LHVACELARPECLFLLLGHGASPG [ANKRD9] | 2.53 ± 0.61 | 2.44 ± 0.45 |  | 
65 | AALNNHPDIMNLLIKSGAHFDATN [FEM1C] | 2.41 ± 0.24 | 2.54 ± 0.3 |  | 
